Assay results taken from patent US20260022175A1 (Chugai, published 2026).
Changes are numbered by the printed parent chain. Where two headings read alike, the source gives them in different places. One block for each binder: values may come before it.

Experiments:
[1] = target: T1, mouse CTLA4 extracellular region linked with a His-tag (mCTLA4-His) (mouse, UniProt P09793 36-161); assay: SPR Biacore T200, 37C, antibody captured, ATP 10 uM
Experimental: (§1) Biacore T200 was used to measure the binding of the generated antibodies to human CTLA4. 20 mM ACES (pH 7.4), 150 mM NaCl, 2 mM MgCl₂, 0.05% Tween 20 with ATP added to the desired concentration was used as the running buffer, and the assay was performed at 37° C. First, Protein G (CALBIOCHEM) was immobilized onto a Series S Sensor Chip CM3 (GE Healthcare), and the antibodies were captured by interacting an antibody solution prepared in an ATP-free running buffer with the chip. Next, by interacting with a human CTLA4 solution prepared in a running buffer containing ATP to the desired concentration, or a human CTLA4 solution prepared in a running buffer containing no ATP, the binding ability of the antibody to human CTLA4 in the presence or absence of ATP was evaluated. Chips were regenerated with 25 mM NaOH and 10 mM Glycine-HCl (pH 1.5), and assay was performed by repeatedly capturing antibodies. The dissociation constant of each antibody for CTLA4 was calculated using Biacore T200 Evaluation Software 2.0. Specifically, the binding rate constant ka (L/mol/s) and the dissociation rate constant kd (1/s) were calculated by global fitting of the sensorgrams obtained by the measurement, using a 1:1 Langmuir binding model. The dissociation constant KD (mol/L) was calculated from those values. Alternatively, the dissociation constant KD (mol/L) was calculated by the steady state model. In addition, the binding amount of CTLA4 per unit amount of antibody was calculated by correcting the amount of CTLA4 bound as calculated from the sensorgram obtained by the assay with the amount of antibody captured onto the chip surface.
(§2) Next, the binding ability of some variants to mouse CTLA4 and cynomolgus monkey CTLA4 was evaluated.

human CTLA4 [2] = target: T2, human CTLA4 (human); assay: as above
T2 construct: also called hCTLA4; hCTLA4-His-BAP
T2 sequence (chain, as listed by the source limits assumed): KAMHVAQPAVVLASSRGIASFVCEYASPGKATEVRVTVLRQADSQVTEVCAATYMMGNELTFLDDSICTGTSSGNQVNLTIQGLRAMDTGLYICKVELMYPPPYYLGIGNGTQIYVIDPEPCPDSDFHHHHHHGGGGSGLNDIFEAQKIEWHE
Experimental: as §1, §2

[3] = target: T3, cynomolgus monkey CTLA4 (CyCTLA4-His-BAP) (cynomolgus monkey); assay: as above
T3 sequence (chain, as listed by the source limits assumed): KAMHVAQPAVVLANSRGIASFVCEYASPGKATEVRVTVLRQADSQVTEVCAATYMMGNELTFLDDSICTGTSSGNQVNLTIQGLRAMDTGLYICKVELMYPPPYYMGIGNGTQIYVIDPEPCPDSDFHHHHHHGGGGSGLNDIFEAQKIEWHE
Experimental: as §1, §2

[4] = target: T1, mouse CTLA4 extracellular region linked …; assay: SPR Biacore T200, 37C, antibody captured, ATP 1 uM
Experimental: as §1, §2

human CTLA4 [5] = target: T2, human CTLA4; assay: SPR Biacore T200, 37C, antibody captured, ATP 1 uM
Experimental: as §1, §2

[6] = target: T3, cynomolgus monkey CTLA4 …; assay: SPR Biacore T200, 37C, antibody captured, ATP 1 uM
Experimental: as §1, §2

[7] = target: T1, mouse CTLA4 extracellular region linked …; assay: SPR Biacore T200, 37C, antibody captured, ATP 100 uM
Experimental: as §1, §2

human CTLA4 [8] = target: T2, human CTLA4; assay: as above
Experimental: as §1, §2

[9] = target: T3, cynomolgus monkey CTLA4 …; assay: as above
Experimental: as §1, §2

human CTLA4 [10] = target: T2, human CTLA4; assay: SPR Biacore T200, 37C, antibody captured, ATP 10 uM; remark: listed apart in the source
Experimental: as §1

human CTLA4 [11] = target: T2, human CTLA4; assay: SPR Biacore T200, 37C, antibody captured, no ATP; no ATP
Experimental: Biacore T200 was used to measure the binding of the generated antibodies to human CTLA4. 20 mM ACES (pH 7.4), 150 mM NaCl, 2 mM MgCl₂, 0.05% Tween 20 with ATP added to the desired concentration was used as the running buffer, and the assay was performed at 37° C. First, Protein G (CALBIOCHEM) was immobilized onto a Series S Sensor Chip CM3 (GE Healthcare), and the antibodies were captured by interacting an antibody solution prepared in an ATP-free running buffer with the chip. Next, by interacting with a human CTLA4 solution prepared in a running buffer containing ATP to the desired concentration, or a human CTLA4 solution prepared in a running buffer containing no ATP, the binding ability of the antibody to human CTLA4 in the presence or absence of ATP was evaluated. Chips were regenerated with 25 mM NaOH and 10 mM Glycine-HCl (pH 1.5), and assay was performed by repeatedly capturing antibodies. The dissociation constant of each antibody for CTLA4 was calculated using Biacore T200 Evaluation Software 2.0. Specifically, the binding rate constant ka (L/mol/s) and the dissociation rate constant kd (1/s) were calculated by global fitting of the sensorgrams obtained by the measurement, using a 1:1 Langmuir binding model. The dissociation constant KD (mol/L) was calculated from those values. Alternatively, the dissociation constant KD (mol/L) was calculated by the steady state model. […]

human CTLA4 [12] = target: T2, human CTLA4; assay: SPR Biacore T200, 37C, antibody captured, ATP 1 uM; remark: listed apart in the source
human CTLA4 [13] = target: T2, human CTLA4; assay: SPR Biacore T200, 37C, antibody captured, ADP 10 uM;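 further: antibodies held on a Protein G CM3 chip, human CTLA4 as analyte in ACES pH 7.4 buffer, rates from a global 1:1 Langmuir fit, Kd from rates or steady state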
Experimental: as §1
(§3) The binding ability of the generated variants to human CTLA4 in the presence of ADP or AMP was evaluated by Biacore T200 and compared with the binding ability in the presence of ATP.

human CTLA4 [14] = target: T2, human CTLA4; assay: SPR Biacore T200, 37C, antibody captured, ATP 10 uM; remark: listed apart in the source
Experimental: as §1, §3

human CTLA4 [15] = target: T2, human CTLA4; assay: SPR Biacore T200, 37C, antibody captured, AMP 10 uM
Experimental: as §1, §3

human FcRn [16] = target: T4, human FcRn (human, UniProt P55899 24-290; P61769 21-119); assay: SPR; KD of 04H1656-G1m/04L1610-lam1 divided by KD of variant
T4 construct: Prepared by the method of WO 2010/107110; also called hFcRn

[17] = target: T5, human FcγRIIa R allotype extracellular domain with C-terminal His-tag (human, UniProt P12318 34-217); assay: as above
T5 construct: extracellular domain; also called hFcγR IIa R
T5 sequence (looked up): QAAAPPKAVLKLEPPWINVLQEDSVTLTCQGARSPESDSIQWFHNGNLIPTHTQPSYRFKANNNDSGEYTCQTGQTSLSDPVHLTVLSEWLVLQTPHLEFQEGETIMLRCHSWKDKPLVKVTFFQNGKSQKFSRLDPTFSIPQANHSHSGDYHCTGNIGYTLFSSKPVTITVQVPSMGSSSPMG

[18] = target: T6, human FcγRIa extracellular domain with C-terminal His-tag (human, UniProt P12314 16-292); assay: as above
T6 construct: extracellular domain; also called hFcγR Ia; hFcγRIa
T6 sequence (P12314 16-292): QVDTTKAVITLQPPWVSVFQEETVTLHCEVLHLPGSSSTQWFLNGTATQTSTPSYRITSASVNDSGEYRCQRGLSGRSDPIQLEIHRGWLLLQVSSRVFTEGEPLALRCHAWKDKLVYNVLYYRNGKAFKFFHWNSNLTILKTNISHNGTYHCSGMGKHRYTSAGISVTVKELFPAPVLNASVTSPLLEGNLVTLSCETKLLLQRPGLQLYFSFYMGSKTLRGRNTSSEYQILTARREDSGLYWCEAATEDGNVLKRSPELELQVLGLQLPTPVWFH

[19] = target: T7, human FcγRIIIa F allotype extracellular domain with C-terminal His-tag (human, UniProt P08637 17-208); assay: as above
T7 construct: extracellular domain; also called hFcγR IIIa F
T7 sequence (P08637 17-208): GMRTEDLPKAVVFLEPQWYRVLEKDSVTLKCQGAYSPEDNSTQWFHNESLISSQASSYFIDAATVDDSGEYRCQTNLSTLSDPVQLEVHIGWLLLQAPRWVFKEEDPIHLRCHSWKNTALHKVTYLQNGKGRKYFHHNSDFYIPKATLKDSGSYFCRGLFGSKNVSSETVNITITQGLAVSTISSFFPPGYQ

[20] = target: T8, human FcγRIIa H allotype extracellular domain with C-terminal His-tag (human, UniProt P12318 34-217); assay: as above
T8 construct: extracellular domain; also called hFcγR IIa H
T8 sequence (looked up): T5 sequence (looked up) with R134H

[21] = target: T9, human FcγRIIIa V allotype extracellular domain with C-terminal His-tag (human, UniProt P08637 17-208); assay: as above
T9 construct: extracellular domain; also called hFcγR IIIa V
T9 sequence (P08637 17-208 F176V): as the sequence (P08637 17-208) above, with F160V counted along it

human FcRn [22] = target: T4, human FcRn; assay: SPR Biacore T200, captured Ab, pH 6.0, steady state
Experimental: The interaction between the generated antibodies and human FcRn was analyzed by the following method using Biacore T200. 50 mM Na-Phosphate, 150 mM NaCl, 0.05% Tween20 (pH 6.0) was used as the running buffer, and the assay was performed at 25° C. For the sensor chip, Series S SA (GE Healthcare) chips onto which CaptureSelect Human Fab-lambda Kinetics Biotin Conjugate (Thermo Fisher Scientific) was immobilized were used. The antibodies of interest were captured onto these chips and FcRn diluted in the running buffer was allowed to interact with them. Chips were regenerated with 10 mM Glycine-HCl (pH 1.5) and 25 mM NaOH, and assay was performed by repeatedly capturing antibodies. The dissociation constant for FcRn of each antibody was calculated using the steady state model, using Biacore T200 Evaluation Software 2.0.

[23] = target: T10, human FcγRIIb extracellular domain with C-terminal His-tag (human, UniProt P31994 43-217); assay: SPR; binding amount divided by that of 04H1656-G1m/04L1610-lam1
T10 construct: extracellular domain; also called hFcγR IIb
T10 sequence (looked up): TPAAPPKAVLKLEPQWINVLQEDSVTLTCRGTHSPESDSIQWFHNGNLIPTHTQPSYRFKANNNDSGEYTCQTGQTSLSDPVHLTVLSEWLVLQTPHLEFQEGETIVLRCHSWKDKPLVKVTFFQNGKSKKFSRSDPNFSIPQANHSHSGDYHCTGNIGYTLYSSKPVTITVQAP

[24] = target: T10, human FcγRIIb extracellular domain with …; assay: SPR; FcγRIIb bound amount per unit captured Ab
Experimental: (§4) The interaction between the generated antibodies and human FcγRs was analyzed by the following method using Biacore T200. 50 mM Na-Phosphate, 150 mM NaCl, 0.05% Tween20 (pH 7.4) was used as the running buffer, and the assay was performed at 25° C. For the sensor chips, Series S SA (GE Healthcare) chips onto which CaptureSelect Human Fab-lambda Kinetics Biotin Conjugate (Thermo Fisher Scientific) was immobilized were used. The antibodies of interest were captured onto these chips and each FcγR diluted in the running buffer was allowed to interact with them. Chips were regenerated with 10 mM Glycine-HCl (pH 1.5) and 25 mM NaOH, and assay was performed by repeatedly capturing antibodies. The dissociation constants KD (mol/L) for FcγRs of each antibody were calculated using Biacore T200 Evaluation Software 2.0, using the 1:1 Langmuir binding model for FcγRIa and FcγRIIIa and the steady state affinity model for FcγRIIa. For FcγRIIb, the binding amount of FcγRIIb per unit amount of antibody was calculated by correcting the binding amount of FcγRIIb obtained from the sensorgram obtained by the measurement with the amount of antibody captured onto the chip surface.

[25] = target: T5, human FcγRIIa R allotype extracellular …; assay: SPR Biacore T200, captured Ab, pH 7.4
Experimental: as §4

[26] = target: T6, human FcγRIa extracellular domain with …; assay: SPR Biacore T200, captured Ab, pH 7.4
Experimental: as §4

[27] = target: T7, human FcγRIIIa F allotype extracellular …; assay: SPR Biacore T200, captured Ab, pH 7.4
Experimental: as §4

[28] = target: T8, human FcγRIIa H allotype extracellular …; assay: SPR Biacore T200, captured Ab, pH 7.4
Experimental: as §4

[29] = target: T9, human FcγRIIIa V allotype extracellular …; assay: SPR Biacore T200, captured Ab, pH 7.4, steady state model
Experimental: as §4

[30] = target: T10, human FcγRIIb extracellular domain with …; assay: SPR; FcγRIIb bound amount per unit captured Ab; remark: listed apart in the source
[31] = target: T5, human FcγRIIa R allotype extracellular …; assay: SPR Biacore T200, Ab captured via Fab-kappa, pH 7.4, 25C;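 further: each FcγR flowed as analyte over the captured antibodies, KD derived by 1:1 Langmuir or steady-state affinity fitting depending on the receptor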
Experimental: (§5) The interaction between the generated antibodies and human FcγRs was analyzed using Biacore T200. 50 mM Na-Phosphate, 150 mM NaCl, 0.05% Tween20 (pH 7.4) was used as the running buffer, and the assay was performed at 25° C. For the sensor chip, Series S SA (GE Healthcare) chips onto which CaptureSelect Human Fab-kappa Kinetics Biotin Conjugate (Thermo Fisher Scientific) was immobilized were used. The antibodies of interest were captured onto these chips and each FcγR diluted in the running buffer was allowed to interact with them. Chips were regenerated with 10 mM Glycine-HCl (pH 1.5) and 25 mM NaOH, and assay was performed by repeatedly capturing antibodies. The dissociation constants KD (mol/L) for FcγRs of each antibody were calculated using Biacore T200 Evaluation Software 2.0, and using the 1:1 Langmuir binding model for FcγRIa and FcγRIIIa and the steady state affinity model for FcγRIIa. For FcγRIIb, the binding amount of FcγRIIb per unit amount of antibody was calculated by correcting the binding amount of FcγRIIb obtained from the sensorgram obtained by the measurement with the amount of antibody captured onto the chip surface.

[32] = target: T6, human FcγRIa extracellular domain with …; assay: as above
Experimental: as §5

[33] = target: T8, human FcγRIIa H allotype extracellular …; assay: as above
Experimental: as §5

[34] = target: T9, human FcγRIIIa V allotype extracellular …; assay: SPR Biacore T200, Ab captured via Fab-kappa, pH 7.4, 25C, steady state model
Experimental: as §5

human FcRn [35] = target: T4, human FcRn; assay: SPR Biacore T200, Ab captured via Fab-kappa, pH 6.0, steady state
human FcRn [36] = target: T4, human FcRn; assay: SPR; KD of 04H1389-G1m/04L1615-k0MT divided by KD of variant
[37] = target: T5, human FcγRIIa R allotype extracellular …; assay: as above
[38] = target: T6, human FcγRIa extracellular domain with …; assay: as above
[39] = target: T8, human FcγRIIa H allotype extracellular …; assay: as above
[40] = target: T9, human FcγRIIIa V allotype extracellular …; assay: as above
[41] = target: T10, human FcγRIIb extracellular domain with …; assay: SPR; binding amount divided by that of 04H1389-G1m/04L1615-k0MT

Kd [1]: 27 nM
Kd (human CTLA4 [2]): 15 nM
Kd [3]: 28 nM
Kd [4]: 180 nM
Kd (human CTLA4 [5]): 110 nM
Kd [6]: 180 nM
Kd [7]: 10 nM
Kd (human CTLA4 [8]): 4.4 nM
Kd [9]: 8.1 nM
Kd (human CTLA4 [10]): 19 nM
Kd (human CTLA4 [11]): 5300 nM
Kd (human CTLA4 [12]): 120 nM
Kd (human CTLA4 [13]): 32 nM
koff (human CTLA4 [13]): 0.0028 s⁻¹
kon (human CTLA4 [13]): 88000 M⁻¹ s⁻¹
Kd (human CTLA4 [14]): 19 nM
koff (human CTLA4 [14]): 0.0014 s⁻¹
kon (human CTLA4 [14]): 71000 M⁻¹ s⁻¹
Kd (human CTLA4 [15]): 100 nM
koff (human CTLA4 [15]): 0.0089 s⁻¹
kon (human CTLA4 [15]): 89000 M⁻¹ s⁻¹
B1: 04H1654-G1m/04L1610-lam1 (antibody, human IgG1, lambda)
heavy: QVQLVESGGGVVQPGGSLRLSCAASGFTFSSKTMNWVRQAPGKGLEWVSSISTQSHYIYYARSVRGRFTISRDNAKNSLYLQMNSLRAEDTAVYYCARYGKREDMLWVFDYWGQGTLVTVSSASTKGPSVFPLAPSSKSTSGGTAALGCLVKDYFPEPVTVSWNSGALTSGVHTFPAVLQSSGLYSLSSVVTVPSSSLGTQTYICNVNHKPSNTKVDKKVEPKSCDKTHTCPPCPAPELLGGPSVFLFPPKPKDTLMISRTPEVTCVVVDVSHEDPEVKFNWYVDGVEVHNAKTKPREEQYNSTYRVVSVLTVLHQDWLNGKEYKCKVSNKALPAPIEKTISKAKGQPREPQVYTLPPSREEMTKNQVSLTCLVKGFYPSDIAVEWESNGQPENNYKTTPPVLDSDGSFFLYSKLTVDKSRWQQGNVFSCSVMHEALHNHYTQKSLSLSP
light: QSALTQPPSASGSPGQSVTISCEGPSTGVGDYNWVHWYQQHPGKAPKLMIYFTSKKPSGVPDRFSGSKSGNTASLTVSGLQAEDEADYYCQTYAAPLGPMFGGGTKLTVLGQPKAAPSVTLFPPSSEELQANKATLVCLISDFYPGAVTVAWKADSSPVKAGVETTTPSKQSNNKYAASSYLSLTPEQWKSHRSYSCQVTHEGSTVEKTVAPTECS

Relative value to KD between G1m and hFcRn (human FcRn [16]): 1
Relative value to KD between G1m and hFcγRs [17]: 1
Relative value to KD between G1m and hFcγRs [18]: 1
Relative value to KD between G1m and hFcγRs [19]: 1
Relative value to KD between G1m and hFcγRs [20]: 1
Relative value to KD between G1m and hFcγRs [21]: 1
Kd (human FcRn [22]): 1700 nM
Relative binding amount [23]: 1
Binding amount [24]: 0.008
Kd [25]: 1600 nM
Kd [26]: 0.092 nM
Kd [27]: 1000 nM
Kd [28]: 1300 nM
Kd [29]: 970 nM
B2: 04H1656-G1m/04L1610-lam1 (antibody, human IgG1, lambda)
heavy: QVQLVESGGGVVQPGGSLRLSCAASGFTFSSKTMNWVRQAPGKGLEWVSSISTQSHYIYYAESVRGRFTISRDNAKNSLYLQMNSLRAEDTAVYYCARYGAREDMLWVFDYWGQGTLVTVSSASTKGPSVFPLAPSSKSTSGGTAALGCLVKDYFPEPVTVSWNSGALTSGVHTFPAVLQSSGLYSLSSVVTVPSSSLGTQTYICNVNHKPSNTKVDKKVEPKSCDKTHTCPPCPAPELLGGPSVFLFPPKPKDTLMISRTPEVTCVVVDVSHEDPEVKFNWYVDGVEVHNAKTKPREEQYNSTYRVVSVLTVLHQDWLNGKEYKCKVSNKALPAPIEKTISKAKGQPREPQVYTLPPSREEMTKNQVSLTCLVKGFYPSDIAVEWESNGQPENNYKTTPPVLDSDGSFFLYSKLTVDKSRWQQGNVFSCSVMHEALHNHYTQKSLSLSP
light: B1 light

Binding amount [30]: 0.011
Kd [31]: 1500 nM
Kd [32]: 0.045 nM
Kd [33]: 1100 nM
Kd [34]: 910 nM
Kd (human FcRn [35]): 1300 nM
Relative value to KD between G1m and hFcRn (human FcRn [36]): 1
Relative value to KD between G1m and hFcγRs [37]: 1
Relative value to KD between G1m and hFcγRs [38]: 1
Relative value to KD between G1m and hFcγRs [39]: 1
Relative value to KD between G1m and hFcγRs [40]: 1
Relative binding amount [41]: 1
B3: 04H1389-G1m/04L1615-k0MT (antibody, human IgG1, kappa)
heavy: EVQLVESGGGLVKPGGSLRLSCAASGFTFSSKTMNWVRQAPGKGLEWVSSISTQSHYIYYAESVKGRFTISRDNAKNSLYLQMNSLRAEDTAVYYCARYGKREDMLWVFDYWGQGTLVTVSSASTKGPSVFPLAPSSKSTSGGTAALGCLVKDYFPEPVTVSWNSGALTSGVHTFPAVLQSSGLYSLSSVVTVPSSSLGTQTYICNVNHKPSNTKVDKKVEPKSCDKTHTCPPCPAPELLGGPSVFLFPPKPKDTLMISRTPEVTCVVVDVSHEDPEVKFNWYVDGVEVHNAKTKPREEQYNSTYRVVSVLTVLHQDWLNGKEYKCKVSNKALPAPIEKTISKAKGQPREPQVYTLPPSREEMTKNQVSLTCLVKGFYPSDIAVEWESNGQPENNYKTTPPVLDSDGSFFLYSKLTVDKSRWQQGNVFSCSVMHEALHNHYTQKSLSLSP
light: DIVMTQSPLSLPVTPGEPASISCQGPSTGVGDYNYVHWYQQKPGQAPRLLIYFTSKKPSGVPDRFSGSGSGTDFTLKISRVEAEDVGVYYCQTYAAPLGPMFGQGTKLEIKRTVAAPSVFIFPPSDEQLKSGTASVVCLLNNFYPREAKVQWKVDNALQSGNSQESVTEQDSKDSTYSLSSTLTLSKADYEKHKVYACEVTHQGLSSPVTKSFNRGEC
notes: Homodimer used for comparison; also called 04H1389-G1m/04L16150k0MT
